T1: GRIP1_2, Q9Y3R0
T1 sequence (Q9Y3R0 145-248, limits assumed, looked up): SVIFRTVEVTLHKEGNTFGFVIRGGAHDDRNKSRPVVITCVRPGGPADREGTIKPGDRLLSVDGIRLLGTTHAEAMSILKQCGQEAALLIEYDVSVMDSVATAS

T2: DFNB31_3, Q9P202
T2 sequence (Q9P202 811-907, limits assumed, looked up): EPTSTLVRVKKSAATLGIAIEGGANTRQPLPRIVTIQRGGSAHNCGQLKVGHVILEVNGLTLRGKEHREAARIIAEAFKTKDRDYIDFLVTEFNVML

T3: APBA2_1, Q99767
T3 sequence (Q99767 563-664, limits assumed, looked up): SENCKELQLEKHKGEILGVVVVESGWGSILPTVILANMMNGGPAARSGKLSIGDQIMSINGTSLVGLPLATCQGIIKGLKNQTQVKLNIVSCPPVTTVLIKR

T4: PTPN13_1, Q12923
T4 sequence (Q12923 1088-1188, limits assumed, looked up): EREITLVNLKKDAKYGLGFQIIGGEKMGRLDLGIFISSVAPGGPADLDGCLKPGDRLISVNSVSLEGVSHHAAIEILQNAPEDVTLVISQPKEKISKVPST

T5: RHPN1, Q8TCX5
T5 sequence (Q8TCX5 508-602, limits assumed, looked up): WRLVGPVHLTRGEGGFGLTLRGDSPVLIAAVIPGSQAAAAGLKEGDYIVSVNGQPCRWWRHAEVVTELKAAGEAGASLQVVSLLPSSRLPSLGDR

T6: PDZD2_2, O15018
T6 sequence (O15018 329-429, limits assumed, looked up): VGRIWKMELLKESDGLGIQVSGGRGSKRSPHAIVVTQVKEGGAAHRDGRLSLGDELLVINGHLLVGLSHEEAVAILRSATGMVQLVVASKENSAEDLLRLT

T7: RAPGEF6, Q8TEU7
T7 sequence (Q8TEU7 525-625, limits assumed, looked up): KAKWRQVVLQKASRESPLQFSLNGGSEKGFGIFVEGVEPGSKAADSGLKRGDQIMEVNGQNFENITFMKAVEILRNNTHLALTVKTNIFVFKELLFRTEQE

T8: MPDZ_5, O75970
T8 sequence (O75970 695-796, limits assumed, looked up): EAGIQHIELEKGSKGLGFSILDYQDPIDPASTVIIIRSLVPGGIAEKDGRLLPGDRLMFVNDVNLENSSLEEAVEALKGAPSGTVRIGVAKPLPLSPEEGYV

T9: LNX2_3, Q8N448
T9 sequence (Q8N448 463-564, limits assumed, looked up): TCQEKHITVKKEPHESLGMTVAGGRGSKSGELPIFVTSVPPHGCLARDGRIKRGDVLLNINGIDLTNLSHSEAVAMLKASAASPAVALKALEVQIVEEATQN

T10: FRMPD1, Q5SYB0
T10 sequence (Q5SYB0 52-145, limits assumed, looked up): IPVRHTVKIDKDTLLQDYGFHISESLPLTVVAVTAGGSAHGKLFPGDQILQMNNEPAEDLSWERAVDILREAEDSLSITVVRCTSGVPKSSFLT

T11: MPDZ_12, O75970
T11 sequence (O75970 1857-1958, limits assumed, looked up): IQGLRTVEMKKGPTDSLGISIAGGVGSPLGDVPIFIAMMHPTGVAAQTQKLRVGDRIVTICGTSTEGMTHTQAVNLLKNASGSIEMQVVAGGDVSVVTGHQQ

T12: DLG3_3, Q92796
T12 sequence (Q92796 374-475, limits assumed, looked up): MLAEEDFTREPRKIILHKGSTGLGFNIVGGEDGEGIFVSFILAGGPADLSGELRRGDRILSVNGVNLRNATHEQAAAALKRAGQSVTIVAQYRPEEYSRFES


target: HTRA2, O43464; assay: holdup assay; set-up: key: below the threshold = too weak to quantify, mostly under pKd 3.1 to 4; details: plain residues with an end cap or a label only (N-terminal biotin on a linker: ado-ado)
Sequence (O43464 355-458): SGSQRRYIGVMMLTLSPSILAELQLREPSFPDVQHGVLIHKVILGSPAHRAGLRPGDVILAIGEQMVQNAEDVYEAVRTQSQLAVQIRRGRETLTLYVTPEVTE

pKd	Binder
below the threshold	EALLQMESVA [CAVIN3, Q969G5]
below the threshold	VKPQVSESKL [ACOT8, O14734]
below the threshold	IKAIVDLTGL [TRAF2, Q12933]

target: FRMPD2_3, Q68DX3; assay: holdup assay; set-up: key: below the threshold = too weak to quantify, mostly under pKd 3.1 to 4; details: plain residues with an end cap or a label only (N-terminal biotin on a linker: ado-ado)
Sequence (Q68DX3 1073-1166): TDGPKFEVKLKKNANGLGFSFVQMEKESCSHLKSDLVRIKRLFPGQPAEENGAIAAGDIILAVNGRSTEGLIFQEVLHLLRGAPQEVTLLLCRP

pKd	Binder
below the threshold	EALLQMESVA [CAVIN3, Q969G5]
below the threshold	VKPQVSESKL [ACOT8, O14734]
below the threshold	IKAIVDLTGL [TRAF2, Q12933]

target: GRIP2_7, Q9C0E4; assay: holdup assay; set-up: key: below the threshold = too weak to quantify, mostly under pKd 3.1 to 4; details: plain residues with an end cap or a label only (N-terminal biotin on a linker: ado-ado)
Sequence (Q9C0E4 934-1023): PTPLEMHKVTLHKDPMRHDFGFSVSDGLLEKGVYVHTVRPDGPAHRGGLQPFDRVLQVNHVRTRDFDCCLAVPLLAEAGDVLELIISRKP

pKd	Binder
below the threshold	EALLQMESVA [CAVIN3, Q969G5]
below the threshold	VKPQVSESKL [ACOT8, O14734]
below the threshold	IKAIVDLTGL [TRAF2, Q12933]

target: T1, GRIP1_2, Q9Y3R0; assay: holdup assay; set-up: key: below the threshold = too weak to quantify, mostly under pKd 3.1 to 4; details: plain residues with an end cap or a label only (N-terminal biotin on a linker: ado-ado)

pKd	Binder
below the threshold	EALLQMESVA [CAVIN3, Q969G5]
below the threshold	VKPQVSESKL [ACOT8, O14734]
below the threshold	IKAIVDLTGL [TRAF2, Q12933]

target: SNX27, Q96L92; assay: holdup assay; set-up: key: below the threshold = too weak to quantify, mostly under pKd 3.1 to 4; details: plain residues with an end cap or a label only (N-terminal biotin on a linker: ado-ado)

pKd	Binder
4.13	EALLQMESVA [CAVIN3, Q969G5]
5.34	VKPQVSESKL [ACOT8, O14734]
3.51	IKAIVDLTGL [TRAF2, Q12933]

target: T2, DFNB31_3, Q9P202; assay: holdup assay; set-up: key: below the threshold = too weak to quantify, mostly under pKd 3.1 to 4; details: plain residues with an end cap or a label only (N-terminal biotin on a linker: ado-ado)

pKd	Binder
below the threshold	EALLQMESVA [CAVIN3, Q969G5]
3.71	VKPQVSESKL [ACOT8, O14734]
below the threshold	IKAIVDLTGL [TRAF2, Q12933]

target: T3, APBA2_1, Q99767; assay: holdup assay; set-up: key: below the threshold = too weak to quantify, mostly under pKd 3.1 to 4; details: plain residues with an end cap or a label only (N-terminal biotin on a linker: ado-ado)

pKd	Binder
below the threshold	EALLQMESVA [CAVIN3, Q969G5]
below the threshold	VKPQVSESKL [ACOT8, O14734]
below the threshold	IKAIVDLTGL [TRAF2, Q12933]

target: T4, PTPN13_1, Q12923; assay: holdup assay; set-up: key: below the threshold = too weak to quantify, mostly under pKd 3.1 to 4; details: plain residues with an end cap or a label only (N-terminal biotin on a linker: ado-ado)

pKd	Binder
below the threshold	EALLQMESVA [CAVIN3, Q969G5]
below the threshold	VKPQVSESKL [ACOT8, O14734]
below the threshold	IKAIVDLTGL [TRAF2, Q12933]

target: LNX1_2, Q8TBB1; assay: holdup assay; set-up: key: below the threshold = too weak to quantify, mostly under pKd 3.1 to 4; details: plain residues with an end cap or a label only (N-terminal biotin on a linker: ado-ado)
Sequence (Q8TBB1 371-470): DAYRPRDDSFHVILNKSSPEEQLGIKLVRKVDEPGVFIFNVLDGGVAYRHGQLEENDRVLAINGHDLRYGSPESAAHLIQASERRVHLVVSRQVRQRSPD

pKd	Binder
below the threshold	EALLQMESVA [CAVIN3, Q969G5]
below the threshold	VKPQVSESKL [ACOT8, O14734]
below the threshold	IKAIVDLTGL [TRAF2, Q12933]

target: T5, RHPN1, Q8TCX5; assay: holdup assay; set-up: key: below the threshold = too weak to quantify, mostly under pKd 3.1 to 4; details: plain residues with an end cap or a label only (N-terminal biotin on a linker: ado-ado)

pKd	Binder
3.69	EALLQMESVA [CAVIN3, Q969G5]
4.07	VKPQVSESKL [ACOT8, O14734]
below the threshold	IKAIVDLTGL [TRAF2, Q12933]

target: NOS1, P29475; assay: holdup assay; set-up: key: below the threshold = too weak to quantify, mostly under pKd 3.1 to 4; details: plain residues with an end cap or a label only (N-terminal biotin on a linker: ado-ado)
Sequence (P29475 9-101): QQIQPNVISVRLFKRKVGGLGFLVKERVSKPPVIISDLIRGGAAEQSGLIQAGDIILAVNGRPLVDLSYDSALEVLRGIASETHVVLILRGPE

pKd	Binder
below the threshold	EALLQMESVA [CAVIN3, Q969G5]
below the threshold	VKPQVSESKL [ACOT8, O14734]
below the threshold	IKAIVDLTGL [TRAF2, Q12933]

target: T6, PDZD2_2, O15018; assay: holdup assay; set-up: key: below the threshold = too weak to quantify, mostly under pKd 3.1 to 4; details: plain residues with an end cap or a label only (N-terminal biotin on a linker: ado-ado)

pKd	Binder
below the threshold	EALLQMESVA [CAVIN3, Q969G5]
below the threshold	VKPQVSESKL [ACOT8, O14734]
below the threshold	IKAIVDLTGL [TRAF2, Q12933]

target: T7, RAPGEF6, Q8TEU7; assay: holdup assay; set-up: key: below the threshold = too weak to quantify, mostly under pKd 3.1 to 4; details: plain residues with an end cap or a label only (N-terminal biotin on a linker: ado-ado)

pKd	Binder
below the threshold	EALLQMESVA [CAVIN3, Q969G5]
below the threshold	VKPQVSESKL [ACOT8, O14734]
below the threshold	IKAIVDLTGL [TRAF2, Q12933]

target: NHERF4_1, Q86UT5-2; assay: holdup assay; set-up: key: below the threshold = too weak to quantify, mostly under pKd 3.1 to 4; details: plain residues with an end cap or a label only (N-terminal biotin on a linker: ado-ado)
Sequence (Q86UT5 other isoform, or with tags, fused parts or gaps): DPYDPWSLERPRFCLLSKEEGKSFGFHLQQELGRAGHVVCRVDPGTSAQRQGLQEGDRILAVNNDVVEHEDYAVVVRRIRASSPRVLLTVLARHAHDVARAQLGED

pKd	Binder
3.59	EALLQMESVA [CAVIN3, Q969G5]
3.78	VKPQVSESKL [ACOT8, O14734]
3.76	IKAIVDLTGL [TRAF2, Q12933]

target: DLG2_2, Q15700; assay: holdup assay; set-up: key: below the threshold = too weak to quantify, mostly under pKd 3.1 to 4; details: plain residues with an end cap or a label only (N-terminal biotin on a linker: ado-ado)
Sequence (Q15700 189-283): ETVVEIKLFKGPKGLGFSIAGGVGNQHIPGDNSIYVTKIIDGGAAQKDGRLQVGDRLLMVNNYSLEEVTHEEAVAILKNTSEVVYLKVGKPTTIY

pKd	Binder
below the threshold	EALLQMESVA [CAVIN3, Q969G5]
below the threshold	VKPQVSESKL [ACOT8, O14734]
below the threshold	IKAIVDLTGL [TRAF2, Q12933]

target: AHNAK1, Q09666; assay: holdup assay; set-up: key: below the threshold = too weak to quantify, mostly under pKd 3.1 to 4; details: plain residues with an end cap or a label only (N-terminal biotin on a linker: ado-ado)
Sequence (Q09666 4-100): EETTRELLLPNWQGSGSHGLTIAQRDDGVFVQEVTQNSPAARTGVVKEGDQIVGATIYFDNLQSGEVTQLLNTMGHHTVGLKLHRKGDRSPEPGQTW

pKd	Binder
below the threshold	EALLQMESVA [CAVIN3, Q969G5]
below the threshold	VKPQVSESKL [ACOT8, O14734]
below the threshold	IKAIVDLTGL [TRAF2, Q12933]

target: T8, MPDZ_5, O75970; assay: holdup assay; set-up: key: below the threshold = too weak to quantify, mostly under pKd 3.1 to 4; details: plain residues with an end cap or a label only (N-terminal biotin on a linker: ado-ado)

pKd	Binder
below the threshold	EALLQMESVA [CAVIN3, Q969G5]
below the threshold	VKPQVSESKL [ACOT8, O14734]
below the threshold	IKAIVDLTGL [TRAF2, Q12933]

target: Inadl_8, Q8NI35; assay: holdup assay; set-up: key: below the threshold = too weak to quantify, mostly under pKd 3.1 to 4; details: plain residues with an end cap or a label only (N-terminal biotin on a linker: ado-ado)
Sequence (Q8NI35 1425-1530): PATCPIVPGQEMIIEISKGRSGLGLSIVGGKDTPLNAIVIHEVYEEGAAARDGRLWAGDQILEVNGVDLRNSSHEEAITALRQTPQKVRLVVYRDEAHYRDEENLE

pKd	Binder
below the threshold	EALLQMESVA [CAVIN3, Q969G5]
below the threshold	VKPQVSESKL [ACOT8, O14734]
below the threshold	IKAIVDLTGL [TRAF2, Q12933]

target: T9, LNX2_3, Q8N448; assay: holdup assay; set-up: key: below the threshold = too weak to quantify, mostly under pKd 3.1 to 4; details: plain residues with an end cap or a label only (N-terminal biotin on a linker: ado-ado)

pKd	Binder
below the threshold	EALLQMESVA [CAVIN3, Q969G5]
below the threshold	VKPQVSESKL [ACOT8, O14734]
below the threshold	IKAIVDLTGL [TRAF2, Q12933]

target: MAGI2_2, Q86UL8; assay: holdup assay; set-up: key: below the threshold = too weak to quantify, mostly under pKd 3.1 to 4; details: plain residues with an end cap or a label only (N-terminal biotin on a linker: ado-ado)
Sequence (Q86UL8 410-522): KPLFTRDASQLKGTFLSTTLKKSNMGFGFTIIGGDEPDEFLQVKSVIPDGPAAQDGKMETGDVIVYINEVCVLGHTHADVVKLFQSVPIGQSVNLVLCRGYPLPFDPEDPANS

pKd	Binder
below the threshold	EALLQMESVA [CAVIN3, Q969G5]
3.64	VKPQVSESKL [ACOT8, O14734]
below the threshold	IKAIVDLTGL [TRAF2, Q12933]

target: T10, FRMPD1, Q5SYB0; assay: holdup assay; set-up: key: below the threshold = too weak to quantify, mostly under pKd 3.1 to 4; details: plain residues with an end cap or a label only (N-terminal biotin on a linker: ado-ado)

pKd	Binder
below the threshold	EALLQMESVA [CAVIN3, Q969G5]
below the threshold	VKPQVSESKL [ACOT8, O14734]
below the threshold	IKAIVDLTGL [TRAF2, Q12933]

target: T11, MPDZ_12, O75970; assay: holdup assay; set-up: key: below the threshold = too weak to quantify, mostly under pKd 3.1 to 4; details: plain residues with an end cap or a label only (N-terminal biotin on a linker: ado-ado)

pKd	Binder
below the threshold	EALLQMESVA [CAVIN3, Q969G5]
below the threshold	VKPQVSESKL [ACOT8, O14734]
below the threshold	IKAIVDLTGL [TRAF2, Q12933]

target: GRIP2_3, Q9C0E4; assay: holdup assay; set-up: key: below the threshold = too weak to quantify, mostly under pKd 3.1 to 4; details: plain residues with an end cap or a label only (N-terminal biotin on a linker: ado-ado)
Sequence (Q9C0E4 238-339): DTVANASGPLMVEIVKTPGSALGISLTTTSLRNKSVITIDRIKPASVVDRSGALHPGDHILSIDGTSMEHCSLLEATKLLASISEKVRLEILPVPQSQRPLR

pKd	Binder
below the threshold	EALLQMESVA [CAVIN3, Q969G5]
below the threshold	VKPQVSESKL [ACOT8, O14734]
below the threshold	IKAIVDLTGL [TRAF2, Q12933]

target: T12, DLG3_3, Q92796; assay: holdup assay; set-up: key: below the threshold = too weak to quantify, mostly under pKd 3.1 to 4; details: plain residues with an end cap or a label only (N-terminal biotin on a linker: ado-ado)

pKd	Binder
below the threshold	EALLQMESVA [CAVIN3, Q969G5]
below the threshold	VKPQVSESKL [ACOT8, O14734]
below the threshold	IKAIVDLTGL [TRAF2, Q12933]
